Reference: article PMC8204860, “Structural basis of [sequence]‐mediated Rab1 activation” (The EMBO Journal, 2021)

Target: T1, Trs31 (Saccharomyces cerevisiae, UniProt Q03337 1-283)
T1 construct: Trs31, TRAPP core subunit, S. cerevisiae; also called Trs31 subunit
T1 sequence: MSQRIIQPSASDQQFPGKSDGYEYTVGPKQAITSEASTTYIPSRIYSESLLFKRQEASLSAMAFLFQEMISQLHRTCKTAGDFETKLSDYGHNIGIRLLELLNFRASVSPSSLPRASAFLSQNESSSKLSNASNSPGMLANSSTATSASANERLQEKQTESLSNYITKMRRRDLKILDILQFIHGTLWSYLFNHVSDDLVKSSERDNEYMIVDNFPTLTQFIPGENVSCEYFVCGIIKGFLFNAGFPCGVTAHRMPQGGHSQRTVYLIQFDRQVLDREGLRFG
Assay: cryo-EM structure; TRAPPIII (after anion exchange) mixed 1:3 with Ypt1-7xHis, overnight at 4°C with calf intestinal alkaline phosphatase, complex isolated by SEC in 10 mM Tris pH 7.5, 350 mM NaCl, 1 mM DTT; 3.7 Å reconstruction
Conditions: both partners purified

- binding result: binds
B1: Rab1/Ypt1 (Ypt1-7xHis) (natural protein)
chain: not shown
notes: Rab1/Ypt1, budding yeast GTPase; Made nucleotide-free in the complex by alkaline phosphatase. pGEX-6P backbone; gift from the T. Bretscher laboratory; also called GST-Ypt1-7xHis (before cleavage); source: E. coli Rosetta2, purified (glutathione resin, eluted by PreScission cleavage of GST); not shown: GST, N-terminal, cleaved
